From patent US20200308277A1

Tests used:
[1] = biological target: huTIM-3/his (human) (UniProt Q8TDQ0); assay: SPR (Biacore) competition; 2nd antibody injection after 1st antibody ABTIM3-hum11 (competitor)
[2] = biological target: huTIM-3/his (human) (UniProt Q8TDQ0); assay: SPR (Biacore) competition, hTIM-3/his captured by anti-His antibody; 1st antibody injection
[3] = biological target: huTIM-3/his (human) (UniProt Q8TDQ0); assay: SPR (Biacore) competition; 2nd antibody injection after 1st antibody ABTIM3-hum03 (competitor)
[4] = biological target: huTIM-3/his (human) (UniProt Q8TDQ0); assay: SPR (Biacore) competition; 2nd antibody injection after 1st antibody ABTIM3-hum21 (competitor)
[5] = biological target: huTIM-3/his (human) (UniProt Q8TDQ0); assay: SPR (Biacore) competition; 2nd antibody injection after 1st antibody huIgG1 (competitor)

Chain of huTIM-3/his (human) (Q8TDQ0 22-202 limits assumed): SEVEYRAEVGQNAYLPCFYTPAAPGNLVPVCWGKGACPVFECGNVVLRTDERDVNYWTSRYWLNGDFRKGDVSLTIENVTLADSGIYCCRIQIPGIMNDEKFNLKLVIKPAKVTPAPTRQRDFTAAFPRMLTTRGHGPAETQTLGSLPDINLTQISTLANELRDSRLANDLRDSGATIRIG

change in RU [1]: 3.8 RU | change in RU [2]: 0.27 RU | change in RU [3]: 4.5 RU | change in RU [4]: 4.5 RU | change in RU [5]: 3.6 RU
Substance: huIgG1 (antibody)
